In US20250136718A1 (MABWELL THERAPEUTICS, published 2025):
Read-outs that look alike come from different tables or passages of the source.

T1: mouse TMPRSS6 expressed on HEK293T cells, MoTMPRSS6-(His)6 (UniProt Q9DBI0 1-811)
T1 chain: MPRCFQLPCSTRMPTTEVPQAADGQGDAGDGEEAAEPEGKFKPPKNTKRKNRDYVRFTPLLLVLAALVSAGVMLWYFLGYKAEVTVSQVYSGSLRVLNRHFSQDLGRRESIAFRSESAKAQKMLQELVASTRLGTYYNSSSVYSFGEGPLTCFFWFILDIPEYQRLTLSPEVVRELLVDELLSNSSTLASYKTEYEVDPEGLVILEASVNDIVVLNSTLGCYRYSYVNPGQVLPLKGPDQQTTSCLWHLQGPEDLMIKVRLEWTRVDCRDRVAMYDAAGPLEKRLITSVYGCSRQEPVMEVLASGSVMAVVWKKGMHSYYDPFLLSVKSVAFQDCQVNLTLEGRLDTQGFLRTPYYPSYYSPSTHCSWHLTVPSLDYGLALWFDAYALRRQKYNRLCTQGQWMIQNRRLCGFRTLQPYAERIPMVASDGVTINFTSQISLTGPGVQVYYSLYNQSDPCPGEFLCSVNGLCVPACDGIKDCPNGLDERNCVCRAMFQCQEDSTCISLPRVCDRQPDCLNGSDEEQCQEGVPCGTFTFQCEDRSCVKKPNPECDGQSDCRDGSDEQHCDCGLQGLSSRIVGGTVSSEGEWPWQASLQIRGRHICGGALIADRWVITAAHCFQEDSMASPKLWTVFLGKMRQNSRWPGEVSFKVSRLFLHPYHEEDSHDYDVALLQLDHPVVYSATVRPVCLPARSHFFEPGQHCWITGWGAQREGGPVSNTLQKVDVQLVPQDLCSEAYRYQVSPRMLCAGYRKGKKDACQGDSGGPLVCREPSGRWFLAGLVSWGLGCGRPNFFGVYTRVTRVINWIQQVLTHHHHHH

T2: human TMPRSS6 (matriptase-2) expressed on HEK293T cells, huTMPRSS6-(His)6 (UniProt Q8IU80 10-811)
T2 chain: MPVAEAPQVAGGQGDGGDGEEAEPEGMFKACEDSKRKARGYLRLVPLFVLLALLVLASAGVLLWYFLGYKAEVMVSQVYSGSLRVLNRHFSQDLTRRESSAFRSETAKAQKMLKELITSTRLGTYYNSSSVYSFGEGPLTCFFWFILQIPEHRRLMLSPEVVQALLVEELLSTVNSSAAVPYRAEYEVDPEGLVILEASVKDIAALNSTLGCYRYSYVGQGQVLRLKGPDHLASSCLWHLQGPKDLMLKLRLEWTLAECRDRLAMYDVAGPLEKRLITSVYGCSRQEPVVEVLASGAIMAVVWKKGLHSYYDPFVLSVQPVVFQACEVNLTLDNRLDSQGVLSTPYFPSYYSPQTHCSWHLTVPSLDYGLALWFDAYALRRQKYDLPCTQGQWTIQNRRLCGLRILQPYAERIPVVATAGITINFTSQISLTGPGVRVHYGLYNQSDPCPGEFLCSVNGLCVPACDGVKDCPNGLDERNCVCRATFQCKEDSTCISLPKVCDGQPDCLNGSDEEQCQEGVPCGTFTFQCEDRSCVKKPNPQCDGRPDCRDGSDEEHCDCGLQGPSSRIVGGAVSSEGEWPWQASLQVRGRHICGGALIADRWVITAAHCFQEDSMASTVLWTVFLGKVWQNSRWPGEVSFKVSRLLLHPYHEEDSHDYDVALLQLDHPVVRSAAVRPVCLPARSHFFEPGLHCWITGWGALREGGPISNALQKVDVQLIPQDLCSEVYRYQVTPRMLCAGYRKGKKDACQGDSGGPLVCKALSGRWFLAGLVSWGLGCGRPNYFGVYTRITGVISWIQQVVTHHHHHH

T3: mouse TMPRSS6 expressed on HEK293T cells, MoTMPRSS6-(His)6 (mouse, UniProt Q9DBI0 1-811)
T3 construct: HEK293T cells stably expressing the construct; also called murine TMPRSS6
T3 sequence: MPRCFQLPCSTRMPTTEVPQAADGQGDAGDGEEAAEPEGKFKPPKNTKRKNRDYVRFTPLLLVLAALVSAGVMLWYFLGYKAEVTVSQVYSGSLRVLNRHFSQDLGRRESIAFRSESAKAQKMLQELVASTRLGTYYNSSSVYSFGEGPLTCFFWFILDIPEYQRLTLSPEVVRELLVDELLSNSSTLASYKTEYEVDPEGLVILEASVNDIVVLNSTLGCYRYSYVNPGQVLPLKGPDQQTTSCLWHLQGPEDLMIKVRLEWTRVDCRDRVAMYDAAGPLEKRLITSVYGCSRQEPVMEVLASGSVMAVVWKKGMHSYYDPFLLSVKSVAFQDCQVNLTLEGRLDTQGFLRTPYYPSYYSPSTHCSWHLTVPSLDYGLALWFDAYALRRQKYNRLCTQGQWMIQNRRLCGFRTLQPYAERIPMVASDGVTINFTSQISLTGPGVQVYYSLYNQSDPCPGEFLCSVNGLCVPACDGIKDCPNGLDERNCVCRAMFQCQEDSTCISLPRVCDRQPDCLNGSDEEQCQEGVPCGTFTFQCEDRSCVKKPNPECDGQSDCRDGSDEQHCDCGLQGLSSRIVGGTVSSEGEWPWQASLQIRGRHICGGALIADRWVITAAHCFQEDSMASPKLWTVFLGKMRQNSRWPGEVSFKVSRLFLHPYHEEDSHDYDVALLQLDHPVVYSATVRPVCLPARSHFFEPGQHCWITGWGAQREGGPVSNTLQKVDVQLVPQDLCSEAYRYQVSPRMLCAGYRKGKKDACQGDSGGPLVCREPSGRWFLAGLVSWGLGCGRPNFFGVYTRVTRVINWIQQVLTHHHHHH


Key:
[1] = molecular target: T1, mouse TMPRSS6 expressed on HEK293T …; experiment: cell surface ELISA
[2] = molecular target: T2, human TMPRSS6 (matriptase-2) expressed …; experiment: cell surface ELISA
[3] = molecular target: T3, mouse TMPRSS6 expressed on HEK293T …; experiment: summary of Example 4 (FACS, cell surface ELISA)
Method: Selected anti-TMPRSS6 antibodies were tested to determine whether any are capable of binding to TMPRSS6 from mouse and/or cynomolgus monkey. HEK293T cells stably expressing human TMPRSS6 (HuTMPRSS6-(His)₆) (generated by LakePharma Inc as described above), HEK293T cells stably expressing mouse TMPRSS6 (MoTMPRSS6-(His)₆) (SEQ ID NO: 98) (generated by LakePharma Inc as described above) and HEK293T cells transiently expressing cynomolgus monkey TMPRSS6 (CynoTMPRSS6-(His)₆) (SEQ ID NO: 99) (generated in house) were collected. HEK293T cells stably expressing human TMPRSS6 were used as a positive control and HEK293T cells were used as a negative control (as described above). Cells were blocked with dPBS+3% BSA before incubation with anti-TMPRSS6 antibodies diluted in dPBS+3% BSA. After incubation, cells were washed with dPBS and followed by another incubation with goat anti-mouse IgG conjugated with AlexaFluor-488 as a 2° antibody (Invitrogen). At last, cells were washed with dPBS to remove unbound antibody, re-suspended with dPBS+1 mM EDTA, and then subjected to FACS analysis using a NOVOCYTE® Flow Cytometer (ACEA Biosciences, Inc., San Diego CA). Bound antibody was determined by excitation at 488 nm and measurement of emission (FITC-A) at 530 nm. Results for these assays are shown in histogram plots in FIGS. 4A-4I.
HEK293T cells stably expressing mouse TMPRSS6 (generated by LakePharma Inc as described above, FIGS. 4J, 4L, 4N, 4P, 4R, 4T) or cynomolgus monkey (generated in house as described above, FIGS. 4K, 4M, 4O, 4Q, 4S, 4U) were fixed with methanol (100%), and washed with dPBS (Dulbecco's phosphate-buffered saline, Corning Cellgro) before incubation with various concentrations of anti-TMPRSS6 antibodies and their humanized variants diluted in BSA medium (DMEM+1% Pen/Strep+10 mM HEPES+1 mg/ml BSA (Sigma-Aldrich)). Purified mouse IgG (FIGS. 4J-4O) or Human IgG1 (FIGS. 4P-4U) was used as a control.

[4] = molecular target: T2, human TMPRSS6 (matriptase-2) expressed …; experiment: FACS
[5] = molecular target: T1, mouse TMPRSS6 expressed on HEK293T …; experiment: cell surface ELISA

Row | Binder | EC50 [1] [µg/mL] | EC50 [2] [µg/mL] | binding result [3] | EC50 [4] [µg/mL] | EC50 [5] [µg/mL]
1 | MWTx-001 anti-TMPRSS6 monoclonal antibody (antibody, mouse IgG2a, kappa, V domains shown, Mouse monoclonal antibody from hybridoma (ATCC PTA-126759)) VH: QVQLQQPGAELAKPGASVKMSCKASGYTFTSYWITWVKQRPGQDLEWIGNIYPGSGSTYYNEKFKSKATLTVDTSSRTAYMQLSSLTSADSAVYYCAPYDSDYAMDYWGQGTSVTVSS VL: DIKMTQSPSSMYASLGERVTITCKASQDINNYLSWFQQKPGKSPKTLIYRANRLVDGVPSRVSGSGSGQDYSLTISSLEYEDVGIYFCLQYDEFPLTFGAGTKLELKR | 0.25 | 0.2 | binds | 1 | –
2 | humanized anti-TMPRSS6 antibody variant hzMWTx-001 Var (antibody, human IgG1, kappa, N297A, V domains shown, Human IgG1 / kappa) VH: EVQLVQSGAEVKKPGASVKVSCKASGYTFTSYWITWVRQAPGQRLEWIGNIYPGSGSTYYNEKFKSKATITRDTSSRTAYMELSSLRSEDTAVYYCAPYDADYAMDYWGQGTLVTVSS VL: DIQMTQSPSSLSASVGDRVTITCKASQDISNYLSWFQQKPGKAPKLLIYRANRLVEGVPSRFSGSGSGTDFTLTISSLQPEDFATYFCLQYDEFPLTFGGGTKVEIKR | – | – | – | – | 0.03
3 | MWTx-003 anti-TMPRSS6 monoclonal antibody (antibody, mouse IgG2b, kappa, V domains shown, Mouse monoclonal antibody from hybridoma (ATCC PTA-126761); The recombinant version r4K12B has the same HC and LC; also called r4K12B; recombinant MWTx-003) VH: EVQLQQSGAELVKPGASVKLSCTASGFNIEDYYIHWVKERTEQGLEWIGRIDPEDGETTYAPQFQGKATIIPDTSSNTAYMQLSSLTSEDAAVYYCARSIYLDPMDYWGQGTSVTVSS VL: DIVMTQSHKFMSTSVGDRVSITCKASQDVTTAVAWYQQKPGQSPKILIYWATTRHTGVPDRFTGSISGTTYILTISSVQAEDLALYYCQQHYSTPYTFGGGTKLEIKR | 0.07 | 0.05 | binds | 0.2 | –

Next, values leading:

Row | EC50 [1] [µg/mL] | EC50 [2] [µg/mL] | binding result [3] | EC50 [4] [µg/mL] | EC50 [5] [µg/mL] | Binder
4 | – | – | – | – | 0.31 | humanized anti-TMPRSS6 antibody variant hzMWTx-003 Var (antibody, human IgG1, kappa, L234A L235A, V domains shown, Human IgG1 / kappa) VH: QVQLVQSGAEVKKPGASVKVSCKASGFNIEDYYMHWVRQAPGQRLEWMGRIDPEDAETTYSPKFQGRVTIIPDTSANTAYMELSSLRSEDTAVYYCARSIYLDPMDYWGQGTLVTVSS VL: DIQMTQSPKSLSASVGDRVTITCRASQDVTTALAWYQQKPGQSPKLLIYWATTRHSGVPSRFSGSGSGTDFTLTISSLQPEDFATYYCQQHYSTPYTFGQGTKLEIKR
5 | – | 0.04 | – | 0.2 | – | MWTx-002 anti-TMPRSS6 monoclonal antibody (antibody, mouse IgG2b, kappa, V domains shown, Mouse monoclonal antibody from hybridoma (ATCC PTA-126760)) VH: EVQLQQSGAELVKPGASVKLSCTASGFNIKDYYIHWVKERTEQGLEWFGRIDPEDGESEYAPKFQGKATLTADTSSNTAYLQLSSLTSEDTAVYYCTRGDSMMVTYFDYWGQGTTLTVSS VL: DIVMTQSHKFMSTSVGDRVSITCKASQDVSTAVAWYQQKPGQSPKLLIYWAFTRHTGVPDRFTSTGSGTDYALTISSVQAEDLALYYCQQHYRSPWTFGGGTKLEIKR
